Laboratory results from the nanobody polyreactivity screen of Harvey et al. (2022).

Test: yeast display, Sf9 membrane polyspecificity reagent, FACS + sequencing; frameworks hold sequencing errors
Outline: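 Nanobodies from a synthetic yeast display library (Saccharomyces cerevisiae BJ5465), induced 36–48 hours with galactose, were stained 1 hour at 4 °C with 10% biotinylated, detergent-solubilized Sf9 membrane reagent, enriched on streptavidin microbeads, then FACS-sorted. Anti-HA (expression) and streptavidin (reagent binding) fluorescence set low and high (top ~1%) gates. Polyreactivity labels come from the gate of origin. Genes were colony-PCR amplified, MiSeq 2 × 250 sequenced and filtered by CDR length.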
With “QVQLVESGGGLVQAGGSLRLSCAASGSIFKGYAMGWYRQAPGKEREFVAAITSSDSNTNYADSVKGRFTFSRDNAKNTVYLQLHTLKPEDTAVYYCNARIYNRLYVPHYGFNYWGQGTQVTVSS” the “polyreactivity (PSR sort gate)” value was “low polyreactivity”.
In the case of “QVQLVESGGGLVQAGGSLRLSCAASGSIFKGYAMGWYRQAPGKERELVAAISRTGGSTYYADSVKGRFTISRDYAKNTVYLQMNSLKPEDTAVYYCAAYSASTYDSWGQGTQVTVSS”, the “polyreactivity (PSR sort gate)” value is reported as “high polyreactivity”.
With “QVQLVESGGGLVQAGGSLRLSCAASGSIFKIYAMGWYRQAPGKERELVAAITINGGSTYYADSVKGRFTISRDNAKNTVYLQMNSLKPEDTAVYYCAASADWWYEYWGQGTQVNVSS” the “polyreactivity (PSR sort gate)” value was “low polyreactivity”.
With “QVQLVESGGGLVQAGGSLRLSCAASGSIFKLNAMGWYRQAPGKERELVAAISRGGRTYYADSVKGRFTISRDNAKNTVYLQMNSLKPEDTAVYYCAADASSQIWYYPRDDYWGQGTNVTVSS” the “polyreactivity (PSR sort gate)” value was “low polyreactivity”.
With “QVQLVESGGGLVQAGGSLRLSCAASGSIFKNNAMGWYRQAPGKERELVAAIRSSGGSTYYADSVKGRFTISRDNAKHTVYLQMKSLKPEDTAVYYCAARYRSYPTYYQYNYWGQGTQVTVSS” the “polyreactivity (PSR sort gate)” value was “high polyreactivity”.
In the case of “QVQLVESGGGLVQAGGSLRLSCAASGSIFKQNAMGWYRQAPGKERELVASIRASGDRTYYADSVKGRFTISRDNAKNPVYLQMNSLKPEDSAVYYCAARRVRTRGYNYWGQGTQVTVSS”, the “polyreactivity (PSR sort gate)” value is reported as “high polyreactivity”.
In the case of “QVQLVESGGGLVQAGGSLRLSCAASGSIFKQNAMGWYRQAPGKERELVASIRASGDRTYYADSVKGRFTISRDNAKNTVYLQMNSLKPEDTAVYYCAARRVRTRGYNYWGQGTQVTVSS”, the “polyreactivity (PSR sort gate)” value is reported as “high polyreactivity”.
With “QVQLVESGGGLVQAGGSLRLSCAASGSIFKQNTKGWYRQAPGKERELVAAISSGGSTYYADSVKGRFTISRDNAKNTVYLQMNSLKPEDTAVYYCAKYYDWDYYLPLEGDYWGQGTQVTVSS” the “polyreactivity (PSR sort gate)” value was “low polyreactivity”.
For “QVQLVESGGGLVQAGGSLRLSCAASGSIFKQNTMGWYRQAPGKEREFVAAISSGGSTYYADSVKGRFTISRDNAKNTVYLQMNSLKPEDTAVYYCAKYYDWDYYLPLEGDYWGQGTQVTVSS”, the “polyreactivity (PSR sort gate)” value was “low polyreactivity”.
For “QVQLVESGGGLVQAGGSLRLSCAASGSIFKQNTMGWYRQAPGKETELVAAISSGGSTYYADSVKGRFTISRDNAKNTVYLQMNSLKPEDTAVYYCAKYYDWDYYLPLEGDYWGQGTQVTVSS”, the “polyreactivity (PSR sort gate)” value was “low polyreactivity”.
With “QVQLVESGGGLVQAGGSLRLSCAASGSIFKRNAKGWYRQAPGKERGLVAGNSQSGSSTRYADSVKGRFTISRDNAKNTVYLQMNSLKPEDTAVYYCAAELSLAYTYDYWGQGTQVTVSS” the “polyreactivity (PSR sort gate)” value was “high polyreactivity”.
In the case of “QVQLVESGGGLVQAGGSLRLSCAASGSIFKRNAMGWYRQAPVKETELVAAITRSGSSTYYADSVKGRFKISRDNAKNTVYLQFNSLKPEDTSVYYCAAQYESNGYTGYYWGQGTQVSVSS”, the “polyreactivity (PSR sort gate)” value is reported as “high polyreactivity”.
With “QVQLVESGGGLVQAGGSLRLSCAASGSIFKRNDMGWYRQAPGKDRELVASISSGGSTHYADSVKGRFTISRDNAKNTVSLQMNSLKPEDTAVYYCAATSIRWSVGSFRRDYWGQGTQVTVSS” the “polyreactivity (PSR sort gate)” value was “low polyreactivity”.
In the case of “QVQLVESGGGLVQAGGSLRLSCAASGSIFKRNPMGRYRQAPGKERELVAGISRRAGSTYYADYVKGRFTISRDNAKNTDYLQMNSLKPEDTAVYYCATYSFRGTYRYDYWGQGTQVTVSS”, the “polyreactivity (PSR sort gate)” value is reported as “high polyreactivity”.
For “QVQLVESGGGLVQAGGSLRLSCAASGSIFKRNTMGWYRQAPGKERELVAAISASGGRTYYADSVKGRFTISRDNAKNTVYLQMNSLKPEDTAVYYCNARFRIGRSELDYWGQGTQVTVSS”, the “polyreactivity (PSR sort gate)” value was “low polyreactivity”.
With “QVQLVESGGGLVQAGGSLRLSCAASGSIFKRYAMGWYRQAPGKERELVAAISYSGGSTYYADSVKGLFTISRDNAKNTVYLQMNSLKPEDTAVDYCARGWFYPYYWGQGTQVTVSS” the “polyreactivity (PSR sort gate)” value was “high polyreactivity”.
For “QVQLVESGGGLVQAGGSLRLSCAASGSIFKSNGMGWNRQAPGKERELVAAITGSGGTTYYADSVKGRFTISRDYAKNTVYLQMNSLKPEDTAVYYCAAVNYYWGQGTQVTVSS”, the “polyreactivity (PSR sort gate)” value was “low polyreactivity”.
For “QVQLVESGGGLVQAGGSLRLSCAASGSIFKTNAMGWYRQAPGKERELVAAIRASGGSTYYADSVKGRFTISRDNAKNTVYLQMNSLKPEDTAVYYCAARYWFKYYWGQGTQVTVSS”, the “polyreactivity (PSR sort gate)” value was “high polyreactivity”.
With “QVQLVESGGGLVQAGGSLRLSCAASGSIFKVNAMGWYRQAPGKERELVAAISGNTDTTYYADSVKGRFTISRDNAKNTVYLQMNSLKPEDTAVYYCAADAYIKYYFRWINMYYWGQGTQVTVSS” the “polyreactivity (PSR sort gate)” value was “high polyreactivity”.
In the case of “QVQLVESGGGLVQAGGSLRLSCAASGSIFKWYAMGWSRQAPGKERELVAAITNGGGSTYYADSVKGRFTISRDNAKNTVYLQMNSLKAEDTAVYYCAKDGHSYYPWVYDYWGQGTQVTVSS”, the “polyreactivity (PSR sort gate)” value is reported as “low polyreactivity”.
In the case of “QVQLVESGGGLVQAGGSLRLSCAASGSIFKWYAMGWYRQAPGKERELVAAITRGGSTNYADSVKGRFTISRDNAKNTVYLQMNSLKAEDTAVYYCNAVYTYRSGFGYWGQGTQVTVSS”, the “polyreactivity (PSR sort gate)” value is reported as “low polyreactivity”.
For “QVQLVESGGGLVQAGGSLRLSCAASGSIFKWYTMGWYRQAPGKERELVAGISRGGSTYYADSVKGRFTISRDNAKNTVYLQMNSLKPEDTAVYYCAKASAIWRGDVKYYYWGQGTQVTVSS”, the “polyreactivity (PSR sort gate)” value was “high polyreactivity”.
In the case of “QVQLVESGGGLVQAGGSLRLSCAASGSIFKYSAMAWYRPAPGKERELVATITSGGRTNYADSVKGRFTISRDNAKNTVYLQMNSLKPEDPAVYYCAAGSYYPYHSTTRWYVYWGQGTQVTVSS”, the “polyreactivity (PSR sort gate)” value is reported as “high polyreactivity”.
With “QVQLVESGGGLVQAGGSLRLSCAASGSIFKYYAMGWYRQAPGKERELVAAISSTGGSTYYAHSLKGRFTISRDNANYTVYLQMNSLKTEDTAVYYCNTTYIWKNYDYWGQGTQVTVSS” the “polyreactivity (PSR sort gate)” value was “high polyreactivity”.
With “QVQLVESGGGLVQAGGSLRLSCAASGSIFKYYAMGWYRQAPGKERELVAAITTTGGITYYADSVNGRFTISRDNAKNTDYLQMISLKPEDTAVYYCNAYYPIRSSPYGYYYCGQGTQVTVSS” the “polyreactivity (PSR sort gate)” value was “high polyreactivity”.
With “QVQLVESGGGLVQAGGSLRLSCAASGSIFKYYTMGWYRPAPGKERELVAAITWRGGRTYYADSVKGRFTISRDNAKNTVYLQMNSLKPEDTAVYYCNTASWGFASYYYTYNYWGQGTQVTVSS” the “polyreactivity (PSR sort gate)” value was “high polyreactivity”.
For “QVQLVESGGGLVQAGGSLRLSCAASGSIFLAYAMGWYRQAPGKEREFVAAISFSDGSTYYADSVKGRFTISRDNAKNTVYFQMNSLKPEDTAVYYCNKGASPDDYDYWGQGTQVTVSS”, the “polyreactivity (PSR sort gate)” value was “low polyreactivity”.
With “QVQLVESGGGLVQAGGSLRLSCAASGSIFLAYAMGWYRQAPGKERELVAAITSGGGRTYYADSVKGRFTISRDNAKNTVYLQMNSLKPEDTAVYYCAASYRAGQMWYDYWGQGTQVTVSS” the “polyreactivity (PSR sort gate)” value was “high polyreactivity”.
For “QVQLVESGGGLVQAGGSLRLSCAASGSIFLENAMGWYRQAPGKERELVAAISRSGGSTYYADSVKGRFTISRDNAKNTVYLQMNSLKPEDTAVYYCNAYRDVYNYFFGAKYDYWGQGTQVTVSS”, the “polyreactivity (PSR sort gate)” value was “high polyreactivity”.
In the case of “QVQLVESGGGLVQAGGSLRLSCAASGSIFLFNAMGWYRQAPGKERELVAAINRDDSTYYADSVKGRFTISRDNAKNTVYLLMISLKPEDTAVYYCAAPVLHAYYGYGYWGQGTQVTVSS”, the “polyreactivity (PSR sort gate)” value is reported as “low polyreactivity”.
In the case of “QVQLVESGGGLVQAGGSLRLSCAASGSIFLINAMGWYRQAPGKERELVAAISWSGGSTSYADSVKGRFTISRDNAKNTVYFQMNSLKPEDTAVFYCAAESISYRPGYDYWRQGTQVTVSS”, the “polyreactivity (PSR sort gate)” value is reported as “low polyreactivity”.
For “QVQLVESGGGLVQAGGSLRLSCAASGSIFLIYAMGWYRQAPGKERELVAAITGGGTTNYADSVKGRFTISRDNAKNTVYLQMNSLKPEDTAVYYCNAVPRSWSPYRHWFDYWGQGTQVTVSS”, the “polyreactivity (PSR sort gate)” value was “low polyreactivity”.
In the case of “QVQLVESGGGLVQAGGSLRLSCAASGSIFLKYAMGWYRQAPGKERELVAAISRGGDTNYADSVKGRFTISRDNAKNTVYLQMNSLKPEDTAVYYCAARPGLYFTRRGRYYWGQGTQVTVSS”, the “polyreactivity (PSR sort gate)” value is reported as “high polyreactivity”.
For “QVQLVESGGGLVQAGGSLRLSCAASGSIFLKYTMGRYRQAPGKERELVAAITSGGTTNYADSVKGRFTISRDNAKNTVYLQMNSLKPEDTAVYYCARDSYQLGLIRDPLEYDYWGQGTQETVSS”, the “polyreactivity (PSR sort gate)” value was “low polyreactivity”.
In the case of “QVQLVESGGGLVQAGGSLRLSCAASGSIFLQNAMGWYRQAPGKERELVAAITNGGSTNYADSVKGRFTISRDNAKNTVYLQMNSLKPEDSAVYYCAAYPLYTGSYDRGGYWGQGTQVTVSS”, the “polyreactivity (PSR sort gate)” value is reported as “low polyreactivity”.
For “QVQLVESGGGLVQAGGSLRLSCAASGSIFLRYAMGWYRQAPGKERELVASITSGGSRYYADSVKGRFTISRDNAKNTVYFQMNSLKPEDTAVYYCNALPYRYRRYDYWGQGTQVTVSS”, the “polyreactivity (PSR sort gate)” value was “low polyreactivity”.
With “QVQLVESGGGLVQAGGSLRLSCAASGSIFLSNMGWYRQAPGKERELVAAISRNGGSTYYADSVKGRFTISRDNAKNTVYLQMNSLKPEDTAVYYCAVQRYWGQGTQVTVSS” the “polyreactivity (PSR sort gate)” value was “high polyreactivity”.
For “QVQLVESGGGLVQAGGSLRLSCAASGSIFLSYDMGWYRQAPGNESELVAAITQSGGSTYYADSVKGRFTISRDNAKNTVYLQMNSLKPEDTAVYYCAADYGYFPQETYPTYGYYYWGQGTQVTVSS”, the “polyreactivity (PSR sort gate)” value was “low polyreactivity”.
For “QVQLVESGGGLVQAGGSLRLSCAASGSIFLSYTMGRYRQAPGKERELVAAITSGGSTKYADSVKGRFTISRDNAKNTVYLQMNSLKPEDTAVYYCNATPYSRLGYWGQGTQVTVSS”, the “polyreactivity (PSR sort gate)” value was “high polyreactivity”.
For “QVQLVESGGGLVQAGGSLRLSCAASGSIFLTYTMGWYRQATGKERELVAAITDSDGSTSYADSVKGRFTISRDNAKNTVYLQMNSLKPEDTAVYYCAVEGYWYAGWYAMDYWGQGTQVTVSS”, the “polyreactivity (PSR sort gate)” value was “low polyreactivity”.
For “QVQLVESGGGLVQAGGSLRLSCAASGSIFLVNAMGWYRQAPGERKELVAAISWSSGSTYYADSVKGRFTISRDNAKNTVYLQMNSLKPEDTAVYYCAKRSSITYRYDYWGQGTQVTVSS”, the “polyreactivity (PSR sort gate)” value was “high polyreactivity”.
